B1: MLL5 (parent)
chain: TYLCERCQPRNLDKERAVLLQRRK

Variants of: B1
Assay: protein stability index of a GFP-peptide fusion (GPS, HEK-293T) (PSI 1-6); higher = more stable
Settings: c terminus: a fixed tail appended
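Also: lentivirally expressed fusions sorted by FACS into six bins by GFP to DsRed ratio, PSI derived from sequencing read proportions per bin multiplied by bin number.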

Row | Variant | protein stability index
1 | TYLCERCQPRNLCKERAVLLQRRK [D13C] | 2.24
2 | TYLCERCQPRNLEKERAVLLQRRK [D13E] | 3.13
3 | TYLCERCQPRNLWKERAVLLQRRK [D13W] | 2.16
4 | TYLCERCQPRNLHKERAVLLQRRK [D13H] | 2.64
5 | TYLCERCQPRNLYKERAVLLQRRK [D13Y] | 2.48
6 | TYLCERCQPRNLPKERAVLLQRRK [D13P] | 1.92
7 | TYLCERCQPRNLNKERAVLLQRRK [D13N] | 2.47
8 | TYLCERCQPRNLFKERAVLLQRRK [D13F] | 1.78
9 | TYLCERCQPRNLDKERALLLQRRK [V18L] | 3.05
10 | TYLCERCQPRNLDKERAQLLQRRK [V18Q] | 2.19
11 | TYLCERCQPRNLDKERADLLQRRK [V18D] | 2.73
12 | TYLCERCQPRNLDKERAMLLQRRK [V18M] | 2.19
13 | TYLCERCQPRNLDKERAILLQRRK [V18I] | 2.68
14 | TYLCERCQPRNLDKERAELLQRRK [V18E] | 2.52
15 | TYLCERCQPRNLDKERARLLQRRK [V18R] | 3.18
16 | TYLCERCQPRNLDKERAPLLQRRK [V18P] | 1.6
17 | TYLCERCQPRNLDKERACLLQRRK [V18C] | 2.11
18 | TYLCERCQPRNLDKERAWLLQRRK [V18W] | 2.2
19 | TYLCERCQPRNLDKERAALLQRRK [V18A] | 1.81
20 | TYLCERCQPRNLDKERASLLQRRK [V18S] | 2.21
21 | TYLCERCQPRNLDKERAHLLQRRK [V18H] | 2.16
22 | TYLCERCQPRNLDKERAFLLQRRK [V18F] | 1.96
23 | TYLCERCQPRNLDKERANLLQRRK [V18N] | 1.93
24 | TYLCERCQPRNLDKERATLLQRRK [V18T] | 2.82

Row | Variant | protein stability index
25 | TYLCERCQPRNLDKERAYLLQRRK [V18Y] | 1.65
26 | TYLCERCQPRNLDKERAVYLQRRK [L19Y] | 2.83
27 | TYLCERCQPRNLDKERAVMLQRRK [L19M] | 2.71
28 | TYLCERCQPRNLDKERAVRLQRRK [L19R] | 2.52
29 | TYLCERCQPRNLDKERAVKLQRRK [L19K] | 2.18
30 | TYLCERCQPRNLDKERAVPLQRRK [L19P] | 1.85
31 | TYLCERCQPRNLDKERAVVLQRRK [L19V] | 1.96
32 | TYLCERCQPRNLDKERAVDLQRRK [L19D] | 2.42
33 | TYLCERCQPRNLDKERAVALQRRK [L19A] | 1.76
34 | TYLCERCQPRNLDKERAVGLQRRK [L19G] | 3.37
35 | TYLCERCQPRNLDKERAVNLQRRK [L19N] | 2.08
36 | TYLCERCQPRNLDKERAVFLQRRK [L19F] | 1.7
37 | TYLCERCQPRNLDKERAVHLQRRK [L19H] | 2.54
38 | TYLCERCQPRNLDKERAVELQRRK [L19E] | 2.76
39 | TYLCERCQPRNLDKERAVSLQRRK [L19S] | 2.9
40 | TYLCERCQPRNLDKERAVTLQRRK [L19T] | 2.07
41 | TYLCERCQPRNLDKERAVWLQRRK [L19W] | 1.93
42 | TYLCERCQPRNLDKERAVQLQRRK [L19Q] | 2.54
43 | TYLCERCQPRNLDKERAVCLQRRK [L19C] | 2.03
44 | TYLCERCQPRNQDKERAVLLQRRK [L12Q] | 3.79
45 | TYLCERCQPRNMDKERAVLLQRRK [L12M] | 3.49
46 | TYLCERCQPRNADKERAVLLQRRK [L12A] | 2.56
47 | TYLCERCQPRNDDKERAVLLQRRK [L12D] | 2.01
48 | TYLCERCQPRNEDKERAVLLQRRK [L12E] | 3.2

Row | Variant | protein stability index
49 | TYLCERCQPRNGDKERAVLLQRRK [L12G] | 2.71
50 | TYLCERCQPRNTDKERAVLLQRRK [L12T] | 2.63
51 | TYLCERCQPRNNDKERAVLLQRRK [L12N] | 2.25
52 | TYLCERCQPRNRDKERAVLLQRRK [L12R] | 2.02
53 | TYLCERCQPRNWDKERAVLLQRRK [L12W] | 1.61
54 | TYLCERCQPRNFDKERAVLLQRRK [L12F] | 2.11
55 | TYLCERCQPRNHDKERAVLLQRRK [L12H] | 1.98
56 | TYLCERCQPRNVDKERAVLLQRRK [L12V] | 2.22
57 | TYLCERCQPRNPDKERAVLLQRRK [L12P] | 2.69
58 | TYLCERCQPRNKDKERAVLLQRRK [L12K] | 2.96
59 | TYLCERCQPRNYDKERAVLLQRRK [L12Y] | 1.71
60 | TYLCERCQPRNCDKERAVLLQRRK [L12C] | 1.85
61 | TYLCERCQPRNIDKERAVLLQRRK [L12I] | 2.17
62 | TYLCERCQPRNLDKESAVLLQRRK [R16S] | 1.36
63 | TYLCERCQPRNLDKEWAVLLQRRK [R16W] | 1.69
64 | TYLCERCQPRNLDKEHAVLLQRRK [R16H] | 2.61
65 | TYLCERCQPRNLDKEFAVLLQRRK [R16F] | 2.09
66 | TYLCERCQPRNLDKEKAVLLQRRK [R16K] | 2.1
67 | TYLCERCQPRNLDKETAVLLQRRK [R16T] | 2.25
68 | TYLCERCQPRNLDKECAVLLQRRK [R16C] | 1.45
69 | TYLCERCQPRNLDKENAVLLQRRK [R16N] | 2.01
70 | TYLCERCQPRNLDKEGAVLLQRRK [R16G] | 2.32
71 | TYLCERCQPRNLDKEIAVLLQRRK [R16I] | 1.94
72 | TYLCERCQPRNLDKELAVLLQRRK [R16L] | 3.06

Row | Variant | protein stability index
73 | TYLCERCQPRNLDKEVAVLLQRRK [R16V] | 2.27
74 | TYLCERCQPRNLDKEPAVLLQRRK [R16P] | 2.24
75 | TYLCERCQPRNLDKEYAVLLQRRK [R16Y] | 1.79
76 | TYLCERCQPRNLDKEEAVLLQRRK [R16E] | 1.92
77 | TYLCERCQPRNLDKEMAVLLQRRK [R16M] | 3.23
78 | TYLCERCQPRNLDKEAAVLLQRRK [R16A] | 2.49
79 | TYLCERCQPRNLDKERDVLLQRRK [A17D] | 2.25
80 | TYLCERCQPRNLDKERLVLLQRRK [A17L] | 1.45
81 | TYLCERCQPRNLDKERMVLLQRRK [A17M] | 2.58
82 | TYLCERCQPRNLDKERVVLLQRRK [A17V] | 2.42
83 | TYLCERCQPRNLDKERNVLLQRRK [A17N] | 2.65
84 | TYLCERCQPRNLDKERTVLLQRRK [A17T] | 1.95
85 | TYLCERCQPRNLDKERHVLLQRRK [A17H] | 2
86 | TYLCERCQPRNLDKERQVLLQRRK [A17Q] | 1.88
87 | TYLCERCQPRNLDKERWVLLQRRK [A17W] | 2.16
88 | TYLCERCQPRNLDKERKVLLQRRK [A17K] | 2.26
89 | TYLCERCQPRNLDKERGVLLQRRK [A17G] | 1.78
90 | TYLCERCQPRNLDKERFVLLQRRK [A17F] | 2.07
91 | TYLCERCQPRNLDKERYVLLQRRK [A17Y] | 2.18
92 | TYLCERCQPRNLDKERCVLLQRRK [A17C] | 2.08
93 | TYLCERCQPRNLDKERSVLLQRRK [A17S] | 2.32
94 | TYLCERCQPRNLDKERPVLLQRRK [A17P] | 1.77

From the supplement of paper PMC10567573
